Target: polypeptide N-acetylgalactosaminyltransferase 2 (GalNAc-T2), K75-Q571 (UniProt Q10471)
Assay: other fluorescence titration; tryptophan fluorescence quenching, 25 °C, GalNAc-T2 at 1 μM, peptides 1 to 500 μM, 25 mM Tris, 150 mM NaCl, pH 7.5; without UDP/Mn+2; single binding site model

Chain of polypeptide N-acetylgalactosaminyltransferase 2 (GalNAc-T2), K75-Q571 (Q10471 75-571): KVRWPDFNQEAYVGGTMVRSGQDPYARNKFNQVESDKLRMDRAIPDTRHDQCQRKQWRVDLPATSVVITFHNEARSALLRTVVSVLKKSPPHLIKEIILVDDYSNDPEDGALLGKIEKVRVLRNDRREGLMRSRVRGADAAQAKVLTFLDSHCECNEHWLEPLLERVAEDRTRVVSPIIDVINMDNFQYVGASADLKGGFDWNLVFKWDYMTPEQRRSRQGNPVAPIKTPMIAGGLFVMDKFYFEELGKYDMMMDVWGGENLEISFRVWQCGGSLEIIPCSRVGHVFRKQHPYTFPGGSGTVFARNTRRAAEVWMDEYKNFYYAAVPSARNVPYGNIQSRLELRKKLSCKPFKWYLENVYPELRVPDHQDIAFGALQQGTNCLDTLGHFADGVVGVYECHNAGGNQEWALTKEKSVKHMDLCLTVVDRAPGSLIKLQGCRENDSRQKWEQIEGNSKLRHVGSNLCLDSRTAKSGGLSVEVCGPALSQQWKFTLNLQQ

MUC5AC peptide (naked)
fold change of Kd, without UDP/Mn+2 against with UDP/Mn+2: 4 fold

From paper PMC4432651, “Dynamic interplay between catalytic and lectin domains of GalNAc-transferases modulates protein O-glycosylation” (Nature Communications, 2015)
